Data from the supplement of paper PMC9112550, “Optimization of the antimicrobial peptide Bac7 by deep mutational scanning” (BMC Biology, 2022).

Tested on: Escherichia coli TOP10
Assay: shrunken log2 fold change of peptide-encoding DNA abundance (4.5 h post-induction vs induction); higher = less antimicrobial activity (less host growth inhibition)
Conditions: time post-induction: 4.5 h; library: site-saturation at positions 5, 18, 19, 20
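Further: peptides expressed intracellularly from a pBAD plasmid library in pooled LB shake-flask culture, induced with 0.3% L-arabinose, DNA abundance read by NGS, three biological replicates, DESeq2 with apeglm shrinkage.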

## RRIRLRPPRLPRPRPRPVIIPRP
  shrunken log2 fold change: -0.242

## RRIRLRPPRLPRPRPRPVKLPRP
  shrunken log2 fold change: -0.473

## RRIRLRPPRLPRPRPRPVLCPRP
  shrunken log2 fold change: 0.168

## RRIRLRPPRLPRPRPRPVMIPRP
  shrunken log2 fold change: -0.269

## RRIRLRPPRLPRPRPRPVMMPRP
  shrunken log2 fold change: -0.288

## RRIRLRPPRLPRPRPRPVNIPRP
  shrunken log2 fold change: -0.163

## RRIRLRPPRLPRPRPRPVPKPRP
  shrunken log2 fold change: 0.282

## RRIRLRPPRLPRPRPRPVPMPRP
  shrunken log2 fold change: -0.0969

## RRIRLRPPRLPRPRPRPVPVPRP
  shrunken log2 fold change: -0.0404

## RRIRLRPPRLPRPRPRPVPYPRP
  shrunken log2 fold change: -0.2

## RRIRLRPPRLPRPRPRPVQLPRP
  shrunken log2 fold change: 0.0978

## RRIRLRPPRLPRPRPRPVRAPRP
  shrunken log2 fold change: 0.687

## RRIRLRPPRLPRPRPRPVRTPRP
  shrunken log2 fold change: 0.175

## RRIRLRPPRLPRPRPRPVWVPRP
  shrunken log2 fold change: -0.0407

## RRIRLRPPRLPRPRPRPVYCPRP
  shrunken log2 fold change: -0.303

## RRIRLRPPRLPRPRPRPWACPRP
  shrunken log2 fold change: -0.0699

## RRIRLRPPRLPRPRPRPWAMPRP
  shrunken log2 fold change: -0.0431

## RRIRLRPPRLPRPRPRPWANPRP
  shrunken log2 fold change: 0.0875

## RRIRLRPPRLPRPRPRPWDCPRP
  shrunken log2 fold change: -0.0998

## RRIRLRPPRLPRPRPRPWDLPRP
  shrunken log2 fold change: -0.00277

## RRIRLRPPRLPRPRPRPWDVPRP
  shrunken log2 fold change: -0.0498

## RRIRLRPPRLPRPRPRPWFEPRP
  shrunken log2 fold change: -0.218

## RRIRLRPPRLPRPRPRPWFHPRP
  shrunken log2 fold change: -0.352

## RRIRLRPPRLPRPRPRPWFIPRP
  shrunken log2 fold change: -0.738

## RRIRLRPPRLPRPRPRPWGMPRP
  shrunken log2 fold change: -0.0457

## RRIRLRPPRLPRPRPRPWGNPRP
  shrunken log2 fold change: -0.106

## RRIRLRPPRLPRPRPRPWHDPRP
  shrunken log2 fold change: -0.205

## RRIRLRPPRLPRPRPRPWHIPRP
  shrunken log2 fold change: 0.0292

## RRIRLRPPRLPRPRPRPWIHPRP
  shrunken log2 fold change: -0.487

## RRIRLRPPRLPRPRPRPWINPRP
  shrunken log2 fold change: -0.43

## RRIRLRPPRLPRPRPRPWISPRP
  shrunken log2 fold change: 0.0832

## RRIRLRPPRLPRPRPRPWLDPRP
  shrunken log2 fold change: -0.233

## RRIRLRPPRLPRPRPRPWLVPRP
  shrunken log2 fold change: -0.0391

## RRIRLRPPRLPRPRPRPWPHPRP
  shrunken log2 fold change: 0.0514

## RRIRLRPPRLPRPRPRPWSQPRP
  shrunken log2 fold change: -0.145

## RRIRLRPPRLPRPRPRPWTAPRP
  shrunken log2 fold change: 0.0908

## RRIRLRPPRLPRPRPRPWTWPRP
  shrunken log2 fold change: 0.0307

## RRIRLRPPRLPRPRPRPWVYPRP
  shrunken log2 fold change: 0.0113

## RRIRLRPPRLPRPRPRPWWDPRP
  shrunken log2 fold change: -0.305

## RRIRLRPPRLPRPRPRPWYGPRP
  shrunken log2 fold change: -0.53

## RRIRLRPPRLPRPRPRPWYMPRP
  shrunken log2 fold change: -0.0481

## RRIRLRPPRLPRPRPRPWYPPRP
  shrunken log2 fold change: -0.242

## RRIRLRPPRLPRPRPRPYAPPRP
  shrunken log2 fold change: -0.329

## RRIRLRPPRLPRPRPRPYASPRP
  shrunken log2 fold change: 0.000498

## RRIRLRPPRLPRPRPRPYDDPRP
  shrunken log2 fold change: -0.167

## RRIRLRPPRLPRPRPRPYDPPRP
  shrunken log2 fold change: -0.109

## RRIRLRPPRLPRPRPRPYFKPRP
  shrunken log2 fold change: -1.3

## RRIRLRPPRLPRPRPRPYGPPRP
  shrunken log2 fold change: -0.161

## RRIRLRPPRLPRPRPRPYHLPRP
  shrunken log2 fold change: -0.213

## RRIRLRPPRLPRPRPRPYIQPRP
  shrunken log2 fold change: -0.337

## RRIRLRPPRLPRPRPRPYMMPRP
  shrunken log2 fold change: -0.594

## RRIRLRPPRLPRPRPRPYNIPRP
  shrunken log2 fold change: -1.31

## RRIRLRPPRLPRPRPRPYNNPRP
  shrunken log2 fold change: -1.03

## RRIRLRPPRLPRPRPRPYNTPRP
  shrunken log2 fold change: -0.806

## RRIRLRPPRLPRPRPRPYQLPRP
  shrunken log2 fold change: -0.253

## RRIRLRPPRLPRPRPRPYQPPRP
  shrunken log2 fold change: -0.582

## RRIRLRPPRLPRPRPRPYQYPRP
  shrunken log2 fold change: -0.151

## RRIRLRPPRLPRPRPRPYRQPRP
  shrunken log2 fold change: -0.0238

## RRIRLRPPRLPRPRPRPYRTPRP
  shrunken log2 fold change: -0.197

## RRIRLRPPRLPRPRPRPYTNPRP
  shrunken log2 fold change: -0.6

## RRIRLRPPRLPRPRPRPYVKPRP
  shrunken log2 fold change: -0.182

## RRIRLRPPRLPRPRPRPYWPPRP
  shrunken log2 fold change: -0.518

## RRIRLRPPRLPRPRPRPYYAPRP
  shrunken log2 fold change: -0.484

## RRIRLRPPRLPRPRPRPYYPPRP
  shrunken log2 fold change: -0.117

## RRIRMRPPRLPRPRPRPAAEPRP
  shrunken log2 fold change: 2.71

## RRIRMRPPRLPRPRPRPACLPRP
  shrunken log2 fold change: 0.236

## RRIRMRPPRLPRPRPRPACTPRP
  shrunken log2 fold change: 0.623

## RRIRMRPPRLPRPRPRPADNPRP
  shrunken log2 fold change: 0.0259

## RRIRMRPPRLPRPRPRPAFLPRP
  shrunken log2 fold change: 0.175

## RRIRMRPPRLPRPRPRPAFQPRP
  shrunken log2 fold change: 0.0845

## RRIRMRPPRLPRPRPRPAGIPRP
  shrunken log2 fold change: -0.000742

## RRIRMRPPRLPRPRPRPAHIPRP
  shrunken log2 fold change: -0.161

## RRIRMRPPRLPRPRPRPAIHPRP
  shrunken log2 fold change: 0.156

## RRIRMRPPRLPRPRPRPAINPRP
  shrunken log2 fold change: 0.321

## RRIRMRPPRLPRPRPRPAIQPRP
  shrunken log2 fold change: -0.00069

## RRIRMRPPRLPRPRPRPAKFPRP
  shrunken log2 fold change: 0.0548

## RRIRMRPPRLPRPRPRPAKRPRP
  shrunken log2 fold change: 1.21

## RRIRMRPPRLPRPRPRPALIPRP
  shrunken log2 fold change: 0.136

## RRIRMRPPRLPRPRPRPALYPRP
  shrunken log2 fold change: 0.765

## RRIRMRPPRLPRPRPRPANEPRP
  shrunken log2 fold change: 0.182

## RRIRMRPPRLPRPRPRPANHPRP
  shrunken log2 fold change: 0.0312

## RRIRMRPPRLPRPRPRPANIPRP
  shrunken log2 fold change: -0.0889

## RRIRMRPPRLPRPRPRPAQTPRP
  shrunken log2 fold change: 0.00383

## RRIRMRPPRLPRPRPRPASIPRP
  shrunken log2 fold change: -0.015

## RRIRMRPPRLPRPRPRPATAPRP
  shrunken log2 fold change: 1.17

## RRIRMRPPRLPRPRPRPATIPRP
  shrunken log2 fold change: 0.23

## RRIRMRPPRLPRPRPRPAWCPRP
  shrunken log2 fold change: 3.93

## RRIRMRPPRLPRPRPRPAWGPRP
  shrunken log2 fold change: 0.81

## RRIRMRPPRLPRPRPRPAYLPRP
  shrunken log2 fold change: 0.0142

## RRIRMRPPRLPRPRPRPCANPRP
  shrunken log2 fold change: -0.0263

## RRIRMRPPRLPRPRPRPCCAPRP
  shrunken log2 fold change: 0.78

## RRIRMRPPRLPRPRPRPCCGPRP
  shrunken log2 fold change: 0.215

## RRIRMRPPRLPRPRPRPCCQPRP
  shrunken log2 fold change: 0.212

## RRIRMRPPRLPRPRPRPCDIPRP
  shrunken log2 fold change: -0.151

## RRIRMRPPRLPRPRPRPCETPRP
  shrunken log2 fold change: -0.263

## RRIRMRPPRLPRPRPRPCFAPRP
  shrunken log2 fold change: 0.431

## RRIRMRPPRLPRPRPRPCKEPRP
  shrunken log2 fold change: -0.00822

## RRIRMRPPRLPRPRPRPCKVPRP
  shrunken log2 fold change: -0.0465

## RRIRMRPPRLPRPRPRPCKYPRP
  shrunken log2 fold change: -0.0297

## RRIRMRPPRLPRPRPRPCLEPRP
  shrunken log2 fold change: 0.126

## RRIRMRPPRLPRPRPRPCMFPRP
  shrunken log2 fold change: -0.038

## RRIRMRPPRLPRPRPRPCMSPRP
  shrunken log2 fold change: -0.00161

## RRIRMRPPRLPRPRPRPCQWPRP
  shrunken log2 fold change: -0.152

## RRIRMRPPRLPRPRPRPCRYPRP
  shrunken log2 fold change: 0.11

## RRIRMRPPRLPRPRPRPCSLPRP
  shrunken log2 fold change: -0.0103

## RRIRMRPPRLPRPRPRPCTAPRP
  shrunken log2 fold change: 0.191

## RRIRMRPPRLPRPRPRPCTCPRP
  shrunken log2 fold change: 0.0043

## RRIRMRPPRLPRPRPRPCTTPRP
  shrunken log2 fold change: 0.104

## RRIRMRPPRLPRPRPRPCTVPRP
  shrunken log2 fold change: -0.0102

## RRIRMRPPRLPRPRPRPCTWPRP
  shrunken log2 fold change: -0.0287

## RRIRMRPPRLPRPRPRPCVFPRP
  shrunken log2 fold change: -0.065

## RRIRMRPPRLPRPRPRPCVLPRP
  shrunken log2 fold change: -2.47e-05

## RRIRMRPPRLPRPRPRPCVNPRP
  shrunken log2 fold change: -0.111

## RRIRMRPPRLPRPRPRPCWNPRP
  shrunken log2 fold change: 0.236

## RRIRMRPPRLPRPRPRPCWWPRP
  shrunken log2 fold change: 0.0436

## RRIRMRPPRLPRPRPRPCYQPRP
  shrunken log2 fold change: 2.31

## RRIRMRPPRLPRPRPRPCYTPRP
  shrunken log2 fold change: -0.0524

## RRIRMRPPRLPRPRPRPDAKPRP
  shrunken log2 fold change: 0.937

## RRIRMRPPRLPRPRPRPDCVPRP
  shrunken log2 fold change: 1.71

## RRIRMRPPRLPRPRPRPDCWPRP
  shrunken log2 fold change: 1.96

## RRIRMRPPRLPRPRPRPDDNPRP
  shrunken log2 fold change: 2.27

## RRIRMRPPRLPRPRPRPDDWPRP
  shrunken log2 fold change: 3.03

## RRIRMRPPRLPRPRPRPDFGPRP
  shrunken log2 fold change: 0.0563

## RRIRMRPPRLPRPRPRPDGQPRP
  shrunken log2 fold change: 1.15

## RRIRMRPPRLPRPRPRPDHIPRP
  shrunken log2 fold change: -0.000611

## RRIRMRPPRLPRPRPRPDIVPRP
  shrunken log2 fold change: 0.0138

## RRIRMRPPRLPRPRPRPDKNPRP
  shrunken log2 fold change: 0.373

## RRIRMRPPRLPRPRPRPDMKPRP
  shrunken log2 fold change: 0.182

## RRIRMRPPRLPRPRPRPDNCPRP
  shrunken log2 fold change: 0.00157

## RRIRMRPPRLPRPRPRPDPFPRP
  shrunken log2 fold change: 0.0255

## RRIRMRPPRLPRPRPRPDPKPRP
  shrunken log2 fold change: -0.000946

## RRIRMRPPRLPRPRPRPDRLPRP
  shrunken log2 fold change: 0.55

## RRIRMRPPRLPRPRPRPDTHPRP
  shrunken log2 fold change: 0.18

## RRIRMRPPRLPRPRPRPDYCPRP
  shrunken log2 fold change: -0.369

## RRIRMRPPRLPRPRPRPDYLPRP
  shrunken log2 fold change: -0.051

## RRIRMRPPRLPRPRPRPEAGPRP
  shrunken log2 fold change: 2.36

## RRIRMRPPRLPRPRPRPECFPRP
  shrunken log2 fold change: 1.35

## RRIRMRPPRLPRPRPRPEEGPRP
  shrunken log2 fold change: 0.0237

## RRIRMRPPRLPRPRPRPEENPRP
  shrunken log2 fold change: 3.95

## RRIRMRPPRLPRPRPRPEHKPRP
  shrunken log2 fold change: 2.5

## RRIRMRPPRLPRPRPRPEKAPRP
  shrunken log2 fold change: 1.52

## RRIRMRPPRLPRPRPRPELSPRP
  shrunken log2 fold change: 0.0644

## RRIRMRPPRLPRPRPRPEMKPRP
  shrunken log2 fold change: 2.5

## RRIRMRPPRLPRPRPRPEPCPRP
  shrunken log2 fold change: 1.13

## RRIRMRPPRLPRPRPRPEQVPRP
  shrunken log2 fold change: 0.493

## RRIRMRPPRLPRPRPRPEQYPRP
  shrunken log2 fold change: 0.282

## RRIRMRPPRLPRPRPRPESKPRP
  shrunken log2 fold change: 2.93

## RRIRMRPPRLPRPRPRPETCPRP
  shrunken log2 fold change: 1.67

## RRIRMRPPRLPRPRPRPETRPRP
  shrunken log2 fold change: 0.925

## RRIRMRPPRLPRPRPRPEYMPRP
  shrunken log2 fold change: -0.00213
